Laboratory results taken from patent US10729768B2, “Combination of anti-CD20 antibody and PI3 kinase selective inhibitor” (TG Therapeutics, Inc., priority 2012, dated 2020).

Tests used:
Type in all cases: cell-based
CD19-positive cells = test: B cell depletion from human whole blood (HWB), flow cytometry, CD19; conditions: human whole blood, doses from 1 to 100,000 ng/ml, 24 hrs
Protocol: (§1) A flow cytometry assay was used to compare the ability of S-isomer of compound of formula A, Ublituximab (Ubx), and combinations thereof to deplete B cells from human whole blood (HWB). In this assay, 50 μl of HWB sample was treated with either S-isomer of a compound of formula A (1000 nM), UBX (100 μg/ml to 0.1 μg/ml), or UBX in combination with S-isomer of a compound of formula A at 1000 nM and incubated for 24 hrs at 37° C. and 5% CO2. 20 μl of treated sample was taken in a 1.5 ml centrifuge tube and labeled with CD45 FITC and CD19 PE or CD20 FITC antibody and incubated in the dark for 1 hour at RT. 1 ml of red blood cell (RBC) lysing solution was added, and tubes were centrifuged at 3000 rpm for 10 minutes. […] The tubes were vortexed, and 5000 events were acquired on a Guava® easyCyte™ flow cytometer and analyzed with Incyte Software.
(§2) Gated population of CD45-positive cells were further analyzed for CD19. The number of cells that were positive for CD45 and CD19 was calculated, and the data was expressed as the percentage of CD19 positive cells in the population. CD20-positive populations were gated with fluorescence positive minus unlabeled cells, and the data was expressed as the percentage of CD20-positive cells in the population. The loss of CD19/CD20 population from control was calculated and expressed as % depletion with respect to control.

DB Cells = test: cell cycle assay, flow cytometry; conditions: for G0/G1, percentage of the cell population / G2/M, percentage of the cell population / S, percentage of the cell population / Sub G0, percentage of the cell population: DB cells, 72 h
Protocol: (§3) A cell cycle assay reagent (Millipore) was used to determine the effect of S-isomer of a compound of formula A, UBX, and combinations thereof on the cell cycle in cancerous cells. […] The cells were transferred to microfuge tubes to receive 50 μl of cell cycle reagent and incubated for 30 minutes at RT away from light. Cells were then diluted with 300-400 μl PBS, and a minimum of 10,000 events were acquired on a Guava® easyCyte™ flow cytometer. The data was analyzed with Express Pro software and the percentage of the cell population in different cell cycle stages with respect to control was presented in histograms.

Daudi cells = test: cell cycle assay, flow cytometry; conditions: for G0/G1, percentage of the cell population / G2/M, percentage of the cell population / S, percentage of the cell population / Sub G0, percentage of the cell population: 72 h
Protocol: as §3

U266B1 cells = test: cell cycle assay, flow cytometry; conditions: for G0/G1, percentage of the cell population / G2/M, percentage of the cell population / S, percentage of the cell population / Sub G0, percentage of the cell population: 72 h
Protocol: as §3

Raji Cells = test: cell cycle assay, flow cytometry; conditions: for G0/G1, percentage of the cell population / G2/M, percentage of the cell population / S, percentage of the cell population / Sub G0, percentage of the cell population: 72 h
Protocol: as §3

CD20-positive cells = test: B cell depletion from human whole blood (HWB), flow cytometry, CD20; conditions: human whole blood, 24 hrs
Protocol: as §1, §2

B1: UBX: monoclonal antibody that targets a specific and unique epitope on CD20, bioengineered for enhanced clinical activity and potency (antibody, V domains shown)
VH: QAYLQQSGAELVRPGASVKMSCKASGYTFTSYNMHWVKQTPRQGLEWIGGIYPGNGDTSYNQKFKGKATLTVGKSSSTAYMQLSSLTSEDSAVYFCARYDYNYAMDYWGQGTSVTVSS
VL: QIVLSQSPAILSASPGEKVTMTCRASSSVSYMHWYQQKPGSSPKPWIYATSNLASGVPARFSGSGSGTSYSFTISRVEAEDAATYYCQQWTFNPPTFGGGTRLEIK
modifications: antibody fragment
CD19-positive cells
  depletion of B-cells: 20-30%
DB Cells; UBX 0.001 ng/ml
  G0/G1, percentage of the cell population: 54.38
  G2/M, percentage of the cell population: 34.02
  S, percentage of the cell population: 9.45
  Sub G0, percentage of the cell population: 0.59
DB Cells; UBX 0.01 ng/ml
  G0/G1, percentage of the cell population: 54.99
  G2/M, percentage of the cell population: 34.79
  S, percentage of the cell population: 7.73
  Sub G0, percentage of the cell population: 0.73
DB Cells; UBX 0.1 ng/ml
  G0/G1, percentage of the cell population: 56.34
  G2/M, percentage of the cell population: 38.40
  S, percentage of the cell population: 12.34
  Sub G0, percentage of the cell population: 1.10
DB Cells; UBX 1 ng/ml
  G0/G1, percentage of the cell population: 51.36
  G2/M, percentage of the cell population: 40.07
  S, percentage of the cell population: 6.46
  Sub G0, percentage of the cell population: 0.52
DB Cells; UBX 10 ng/ml
  G0/G1, percentage of the cell population: 49.52
  G2/M, percentage of the cell population: 40.56
  S, percentage of the cell population: 10.07
  Sub G0, percentage of the cell population: 0.56
DB Cells; UBX 100 ng/ml
  G0/G1, percentage of the cell population: 45.98
  G2/M, percentage of the cell population: 46.55
  S, percentage of the cell population: 7.66
  Sub G0, percentage of the cell population: 0.67
DB Cells; Diffuse Large B-cell Lymphoma (DB) cells, 72 hours
  cell cycle effect: modest G2/M arrest
Daudi cells; UBX 0.001 ng/ml
  G0/G1, percentage of the cell population: 38.12
  G2/M, percentage of the cell population: 41.95
  S, percentage of the cell population: 17.90
  Sub G0, percentage of the cell population: 2.03
Daudi cells; UBX 0.01 ng/ml
  G0/G1, percentage of the cell population: 36.24
  G2/M, percentage of the cell population: 37.83
  S, percentage of the cell population: 19.15
  Sub G0, percentage of the cell population: 6.77
Daudi cells; UBX 0.1 ng/ml
  G0/G1, percentage of the cell population: 37.40
  G2/M, percentage of the cell population: 32.42
  S, percentage of the cell population: 17.06
  Sub G0, percentage of the cell population: 13.42
Daudi cells; UBX 1 ng/ml
  G0/G1, percentage of the cell population: 40.52
  G2/M, percentage of the cell population: 26.99
  S, percentage of the cell population: 17.54
  Sub G0, percentage of the cell population: 14.95
Daudi cells; UBX 10 ng/ml
  G0/G1, percentage of the cell population: 40.92
  G2/M, percentage of the cell population: 28.08
  S, percentage of the cell population: 13.23
  Sub G0, percentage of the cell population: 17.77
Daudi cells; UBX 100 ng/ml
  G0/G1, percentage of the cell population: 43.66
  G2/M, percentage of the cell population: 28.55
  S, percentage of the cell population: 9.28
  Sub G0, percentage of the cell population: 19.55
Daudi cells; 72 hours
  cell cycle effect: increased the number of Sub GO cells
U266B1 cells; UBX 0.001 ng/ml
  G0/G1, percentage of the cell population: 60.79
  G2/M, percentage of the cell population: 30.49
  S, percentage of the cell population: 6.00
  Sub G0, percentage of the cell population: 1.34
U266B1 cells; UBX 0.01 ng/ml
  G0/G1, percentage of the cell population: 59.32
  G2/M, percentage of the cell population: 35.48
  S, percentage of the cell population: 6.57
  Sub G0, percentage of the cell population: 0.74
U266B1 cells; UBX 0.1 ng/ml
  G0/G1, percentage of the cell population: 57.53
  G2/M, percentage of the cell population: 35.64
  S, percentage of the cell population: 7.63
  Sub G0, percentage of the cell population: 1.35
U266B1 cells; UBX 1 ng/ml
  G0/G1, percentage of the cell population: 58.81
  G2/M, percentage of the cell population: 36.07
  S, percentage of the cell population: 7.07
  Sub G0, percentage of the cell population: 0.51
U266B1 cells; UBX 10 ng/ml
  G0/G1, percentage of the cell population: 56.85
  G2/M, percentage of the cell population: 37.86
  S, percentage of the cell population: 6.34
  Sub G0, percentage of the cell population: 0.78
U266B1 cells; UBX 100 ng/ml
  G0/G1, percentage of the cell population: 52.95
  G2/M, percentage of the cell population: 39.65
  S, percentage of the cell population: 7.91
  Sub G0, percentage of the cell population: 1.95
U266B1 cells; 72 hours
  cell cycle effect: modest G2/M arrest
Raji Cells; UBX 0.001 ng/ml
  G0/G1, percentage of the cell population: 50.52
  G2/M, percentage of the cell population: 33.66
  S, percentage of the cell population: 10.61
  Sub G0, percentage of the cell population: 4.35
Raji Cells; UBX 0.01 ng/ml
  G0/G1, percentage of the cell population: 54.54
  G2/M, percentage of the cell population: 25.08
  S, percentage of the cell population: 12.65
  Sub G0, percentage of the cell population: 5.51
Raji Cells; UBX 0.1 ng/ml
  G0/G1, percentage of the cell population: 41.11
  G2/M, percentage of the cell population: 22.00
  S, percentage of the cell population: 8.93
  Sub G0, percentage of the cell population: 23.73
Raji Cells; UBX 1 ng/ml
  G0/G1, percentage of the cell population: 39.72
  G2/M, percentage of the cell population: 15.35
  S, percentage of the cell population: 14.82
  Sub G0, percentage of the cell population: 27.32
Raji Cells; UBX 10 ng/ml
  G0/G1, percentage of the cell population: 45.01
  G2/M, percentage of the cell population: 12.90
  S, percentage of the cell population: 8.15
  Sub G0, percentage of the cell population: 31.86
Raji Cells; UBX 100 ng/ml
  G0/G1, percentage of the cell population: 22.19
  G2/M, percentage of the cell population: 33.74
  S, percentage of the cell population: 11.05
  Sub G0, percentage of the cell population: 34.78
Raji Cells; 72 hours
  cell cycle effect: increased the number of Sub GO cells
CD20-positive cells
  reduction in CD20+ B-cells: dose-dependent reduction
